From US20250002610A1 (Genmab, published 2025)

How the values were obtained:
[1] = target: T1, His-tagged recombinant Human FAPα (Acro Biosystems, Cat #FAP-H5244-100ug) (human, UniProt Q12884 26-760); experiment: BLI (Octet), antigen immobilized on AR2G sensors, average of three experiments
T1 construct: Bought reagent; not shown: His tag
T1 sequence (looked up): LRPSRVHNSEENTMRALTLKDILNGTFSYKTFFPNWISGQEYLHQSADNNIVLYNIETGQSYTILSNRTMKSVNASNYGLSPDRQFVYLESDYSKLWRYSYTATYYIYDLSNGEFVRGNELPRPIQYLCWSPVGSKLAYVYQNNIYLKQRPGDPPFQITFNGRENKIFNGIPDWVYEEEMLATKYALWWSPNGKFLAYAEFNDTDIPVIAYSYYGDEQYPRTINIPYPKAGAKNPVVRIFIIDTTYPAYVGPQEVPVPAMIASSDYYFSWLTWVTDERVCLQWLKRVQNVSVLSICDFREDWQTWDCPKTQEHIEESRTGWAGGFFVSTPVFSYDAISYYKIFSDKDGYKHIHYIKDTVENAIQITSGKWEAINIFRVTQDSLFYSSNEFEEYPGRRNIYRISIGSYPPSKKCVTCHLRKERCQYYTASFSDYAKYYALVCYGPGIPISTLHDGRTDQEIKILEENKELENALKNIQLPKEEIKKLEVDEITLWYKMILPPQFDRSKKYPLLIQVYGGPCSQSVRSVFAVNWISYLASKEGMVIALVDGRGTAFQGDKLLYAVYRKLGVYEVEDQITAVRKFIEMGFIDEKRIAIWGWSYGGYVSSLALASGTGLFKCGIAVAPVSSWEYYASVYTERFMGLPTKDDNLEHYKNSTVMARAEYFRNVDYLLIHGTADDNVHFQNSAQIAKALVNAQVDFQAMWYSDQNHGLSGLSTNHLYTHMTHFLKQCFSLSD
Protocol: (§1) Experiments were carried out while shaking at 1,000 RPM at 30° C. Amine Reactive 2nd Generation (AR2G) biosensors (Sartorius, Cat #18-5092) were activated by reaction with 20 mM EDC (N-(3-Dimethylaminopropyl)-N′-ethylcarbodiimide hydrochloride) (Sigma-Aldrich, Cat #03449) and 10 mM s-NHS (N-hydroxysulfosuccinimide sodium salt) (Sigma-Aldrich, Cat #56485) for 300 s. The activated AR2G sensors were loaded with 2.5 μg/mL His-tagged recombinant Human FAPα (Acro Biosystems, Cat #FAP-H5244-100ug) in 10 mM Sodium Acetate pH 5.0 (Sartorius, Cat #18-1069) or 2.5 μg/mL His-tagged recombinant Cynomolgus FAPα (Acro Biosystems, Cat #FAP-C52H3-100ug) in 10 mM Sodium Acetate pH 5.0 for 600 s and quenched with 1 M ethanolamine pH 8.5 (Sartorius Cat #18-1071) for 300 s. After a baseline measurement in Sample Diluent (1000 s; Sartorius, Cat #18-1104), the association (100 s) and dissociation (4,000 s) of functionally monovalent antibody was determined using a concentration range of 0.78-800 nM with two-fold dilution steps in Sample Diluent. The molecular mass of the antibodies used for the calculations was calculated from the sequences.
(§2) The Y-axis was aligned to the last 10 s of the baseline; Interstep Correction alignment to dissociation and Savitzky-Golay filtering were applied. Data traces with a response <0.05 nm were excluded from analysis. […] The data were fitted with the 1:1 Global Full fit model using a window of interest for the association of 100 s and dissociation time set 4,000 s.

[2] = target: T2, His-tagged recombinant Cynomolgus FAPα (Acro Biosystems, Cat #FAP-C52H3-100ug) (cynomolgus monkey, UniProt A0A2K5VGF4 26-760); experiment: as above
T2 construct: Bought reagent; also called recombinant cynomolgus monkey FAPα; not shown: His tag of the vendor's construct (Acro Biosystems FAP-C52H3)
T2 sequence: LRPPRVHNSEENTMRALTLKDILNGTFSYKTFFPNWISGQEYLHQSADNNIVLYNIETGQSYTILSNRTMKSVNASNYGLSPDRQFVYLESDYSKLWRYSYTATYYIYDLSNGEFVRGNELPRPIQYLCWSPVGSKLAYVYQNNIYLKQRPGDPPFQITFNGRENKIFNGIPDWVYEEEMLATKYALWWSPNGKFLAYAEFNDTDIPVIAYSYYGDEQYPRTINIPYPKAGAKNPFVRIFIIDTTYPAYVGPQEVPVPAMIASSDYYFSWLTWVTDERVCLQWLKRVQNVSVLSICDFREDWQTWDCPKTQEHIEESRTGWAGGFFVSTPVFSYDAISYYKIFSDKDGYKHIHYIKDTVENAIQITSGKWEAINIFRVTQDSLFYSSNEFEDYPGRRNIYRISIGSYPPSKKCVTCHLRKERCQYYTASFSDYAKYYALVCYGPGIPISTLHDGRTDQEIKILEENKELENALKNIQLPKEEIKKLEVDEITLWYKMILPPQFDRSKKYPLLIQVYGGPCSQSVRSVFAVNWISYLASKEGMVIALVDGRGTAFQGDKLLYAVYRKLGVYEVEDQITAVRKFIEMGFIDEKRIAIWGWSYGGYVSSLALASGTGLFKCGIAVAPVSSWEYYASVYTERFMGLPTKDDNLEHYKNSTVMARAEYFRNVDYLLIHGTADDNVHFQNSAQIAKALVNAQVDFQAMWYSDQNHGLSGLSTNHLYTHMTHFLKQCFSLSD
Protocol: as §1, §2

B1: BisG1-FAPα-FERL/b12-FERR (bispecific antibody, human IgG1, kappa)
heavy 1: EVQLLESGGGLVQPGGSPRLSCEASGFTFSSYALSWVRQAPGKGLEWVSAISGSGGGRYYADSVKGRFTISRDNSKNTLFLQMNSLRAEDTAVYYCAKEGYSSSGTYWDHWGQGTLVTVSSASTKGPSVFPLAPSSKSTSGGTAALGCLVKDYFPEPVTVSWNSGALTSGVHTFPAVLQSSGLYSLSSVVTVPSSSLGTQTYICNVNHKPSNTKVDKRVEPKSCDKTHTCPPCPAPEFERGPSVFLFPPKPKDTLMISRTPEVTCVVVDVSHEDPEVKFNWYVDGVEVHNAKTKPREEQYNSTYRVVSVLTVLHQDWLNGKEYKCKVSNKALPAPIEKTISKAKGQPREPQVYTLPPSREEMTKNQVSLTCLVKGFYPSDIAVEWESNGQPENNYKTTPPVLDSDGSFLLYSKLTVDKSRWQQGNVFSCSVMHEALHNHYTQKSLSLSPG
light 1: AIQMTQSPSSVSASVGDRVTITCRASQGVSSWLAWYQQKPGRAPKLLIYVASTLQSGVPSRFSGSGSGTDFTLTINSLQPEDFATYYCQQANSFPPTFGQGTRLEMKRTVAAPSVFIFPPSDEQLKSGTASVVCLLNNFYPREAKVQWKVDNALQSGNSQESVTEQDSKDSTYSLSSTLTLSKADYEKHKVYACEVTHQGLSSPVTKSFNRGEC
heavy 2: QVQLVQSGAEVKKPGASVKVSCQASGYRFSNFVIHWVRQAPGQRFEWMGWINPYNGNKEFSAKFQDRVTFTADTSANTAYMELRSLRSADTAVYYCARVGPYSWDDSPQDNYYMDVWGKGTTVIVSSASTKGPSVFPLAPSSKSTSGGTAALGCLVKDYFPEPVTVSWNSGALTSGVHTFPAVLQSSGLYSLSSVVTVPSSSLGTQTYICNVNHKPSNTKVDKRVEPKSCDKTHTCPPCPAPEFERGPSVFLFPPKPKDTLMISRTPEVTCVVVDVSHEDPEVKFNWYVDGVEVHNAKTKPREEQYNSTYRVVSVLTVLHQDWLNGKEYKCKVSNKALPAPIEKTISKAKGQPREPQVYTLPPSREEMTKNQVSLTCLVKGFYPSDIAVEWESNGQPENNYKTTPPVLDSDGSFFLYSRLTVDKSRWQQGNVFSCSVMHEALHNHYTQKSLSLSPG
light 2: EIVLTQSPGTLSLSPGERATFSCRSSHSIRSRRVAWYQHKPGQAPRLVIHGVSNRASGISDRFSGSGSGTDFTLTITRVEPEDFALYYCQVYGASSYTFGQGTKLERKRTVAAPSVFIFPPSDEQLKSGTASVVCLLNNFYPREAKVQWKVDNALQSGNSQESVTEQDSKDSTYSLSSTLTLSKADYEKHKVYACEVTHQGLSSPVTKSFNRGEC
[1]
  Kd: 0.017 nM
  koff: 2.1e-05 s⁻¹
  kon: 1.2e+06 M⁻¹ s⁻¹
[2]
  Kd: 0.034 nM
  koff: 2.5e-05 s⁻¹
  kon: 750000 M⁻¹ s⁻¹
